Residue numbers refer to the chain shown, from its start. Numbers in names are those of the source.
Columns and labels:
[1] = target: T1, human CLDN18.2 (human); assay: FACS on NUGC4_D8 cells
T1 construct: the HEK293 line was made with a GenScript plasmid; also called hCLDN18.2

[2] = target: T1, human CLDN18.2; assay: FACS on HEK293/hCLDN18.2 cells
[3] = target: T2, Human CD64 (human, UniProt P12314 16-288, limits assumed); assay: BLI (Octet), antibody on FAB2G sensor
T2 construct: bought recombinant protein
T2 sequence (P12314 16-288 limits assumed): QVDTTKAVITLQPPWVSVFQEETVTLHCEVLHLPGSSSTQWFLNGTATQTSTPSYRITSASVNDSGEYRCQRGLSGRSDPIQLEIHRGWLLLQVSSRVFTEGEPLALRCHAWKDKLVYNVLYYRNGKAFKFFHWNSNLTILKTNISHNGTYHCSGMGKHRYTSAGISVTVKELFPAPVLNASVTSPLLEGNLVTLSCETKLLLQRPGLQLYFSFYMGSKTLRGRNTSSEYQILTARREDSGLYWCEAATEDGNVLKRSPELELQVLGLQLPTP
Experimental: (§1) The binding kinetics between proteins and antibodies was analyzed by the Biolayer Interferometry (BLI) technique using an Octet Red 96e (Fortebio) system. The rotation speed was set at 1000 rpm for the system. […] After equilibrated in the buffer for 120 s, the FAB2G sensor was allowed to bind to 2-fold serially diluted human Fc receptor protein. Finally, the FAB2G sensor was immersed in a 10 mM glycine-hydrochloric acid solution at pH 1.5 for regeneration to elute the proteins bound to the sensor. The affinity assays of antibodies for FcRn were performed under the conditions of both pH 6.0 buffer and pH 7.4 buffer. […] For the interactions of fast binding and fast dissociation, the “steady state” method was selected to fit the data to obtain KD(M) values.

[4] = target: Human CD16a(V) (human, UniProt P08637 17-208); assay: BLI (Octet), antibody on FAB2G sensor
Sequence of Human CD16a(V) (P08637 17-208 F176V limits assumed): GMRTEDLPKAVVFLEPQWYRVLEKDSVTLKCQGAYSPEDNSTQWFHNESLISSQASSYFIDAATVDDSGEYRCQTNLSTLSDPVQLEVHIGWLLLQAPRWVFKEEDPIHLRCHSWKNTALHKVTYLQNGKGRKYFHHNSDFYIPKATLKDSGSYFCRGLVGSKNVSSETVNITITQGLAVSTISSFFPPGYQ
Experimental: as §1

[5] = target: Human CD16a(F) (human, UniProt P08637 17-208); assay: BLI (Octet), antibody on FAB2G sensor
Sequence of Human CD16a(F) (P08637 17-208 limits assumed): as the sequence (P08637 17-208 F176V limits assumed) above, with V160F counted along it
Experimental: as §1

[6] = target: T3, Human CD32a(H) (human, UniProt P12318 36-218, limits assumed); assay: BLI (Octet), antibody on FAB2G sensor
T3 sequence (looked up): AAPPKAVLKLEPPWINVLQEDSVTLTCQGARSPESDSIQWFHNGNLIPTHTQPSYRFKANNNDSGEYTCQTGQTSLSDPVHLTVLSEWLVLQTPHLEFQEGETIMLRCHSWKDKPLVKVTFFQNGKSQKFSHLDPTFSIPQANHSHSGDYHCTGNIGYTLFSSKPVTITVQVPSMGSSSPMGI
Experimental: as §1

[7] = target: T4, Human CD32b (human, UniProt P31994 46-217, limits assumed); assay: BLI (Octet), antibody on FAB2G sensor
T4 sequence (looked up): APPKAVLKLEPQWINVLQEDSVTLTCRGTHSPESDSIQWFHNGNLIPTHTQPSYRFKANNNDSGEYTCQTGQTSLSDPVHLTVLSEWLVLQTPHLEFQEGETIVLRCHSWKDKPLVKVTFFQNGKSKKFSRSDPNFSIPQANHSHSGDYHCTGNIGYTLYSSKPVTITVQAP
Experimental: as §1

[8] = target: T5, Biotinylated murine CD3E&D (murine, UniProt P22646 22-108; P04235 22-105, biotin label); assay: BLI (Octet), biotinylated CD3 on SA sensor
T5 construct: also called CDD-M82W5
T5 sequence (P22646 22-108, chain 1 of 2): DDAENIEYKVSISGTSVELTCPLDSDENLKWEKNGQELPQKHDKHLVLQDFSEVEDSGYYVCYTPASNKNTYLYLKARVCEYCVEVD
T5 sequence (P04235 22-105, chain 2 of 2): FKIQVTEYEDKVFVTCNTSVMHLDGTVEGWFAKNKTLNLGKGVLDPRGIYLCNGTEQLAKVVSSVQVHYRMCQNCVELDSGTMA
Experimental: (§2) The binding kinetics between proteins and antibodies was analyzed by the Biolayer Interferometry (BLI) technique using an Octet Red 96e (Fortebio) system. Human CD3E (Acro, CDE-H5223), cynomolgus CD3E (Acro, CDE-C5226) and murine CD3E (Acro, CDE-M5256) were mixed with biotin (Thermo Scientific, A39257) in a molar ratio of 1:3. The mixture was incubated at 4° C. overnight, and then excess biotin was removed to obtain biotinylated CD3E. The rotation speed was set at 1000 rpm for the system. […] After being equilibrated in the buffer for 120 s, the SA sensor with captured CD3 was allowed to bind to 2-fold serially diluted antibodies. […] Finally, the SA sensor was immersed in a 10 mM glycine-hydrochloric acid solution at pH 1.5 for regeneration to elute the antibodies bound to the sensor. […] For the interactions of fast binding and fast dissociation, the “steady state” method was selected to fit the data to obtain KD(M) values.

[9] = target: T6, Human CD3E (Acro, CDE-H5223) (human, UniProt P07766 23-126, biotinylated (mixed with biotin 1:3)); assay: BLI (Octet), biotinylated CD3 on SA sensor, 1:1 global fit;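 also: antibodies applied as analyte in 2-fold serial dilutions, with a 180 s association phase followed by a 300 s dissociation phase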
T6 construct: also called Human CD3Ec
T6 sequence (P07766 23-126 limits assumed): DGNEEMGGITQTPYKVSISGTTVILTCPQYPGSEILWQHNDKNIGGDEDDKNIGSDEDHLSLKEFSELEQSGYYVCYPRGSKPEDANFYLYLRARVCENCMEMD
Experimental: as §2

[10] = target: T7, Biotinylated human CD3E&D (human, UniProt P07766 23-126; P04234 22-105, biotin label); assay: as above
T7 construct: also called CDD-H82W6
T7 sequence (P07766 23-126, chain 1 of 2): as the sequence (P07766 23-126 limits assumed) above
T7 sequence (P04234 22-105, chain 2 of 2): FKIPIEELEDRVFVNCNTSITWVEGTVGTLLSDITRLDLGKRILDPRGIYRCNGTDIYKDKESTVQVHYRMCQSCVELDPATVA
Experimental: as §2

[11] = target: T8, Cynomolgus CD3E (Acro, CDE-C5226) (cynomolgus, UniProt Q95LI5 22-117, biotinylated (mixed with biotin 1:3)); assay: as above
T8 sequence (looked up): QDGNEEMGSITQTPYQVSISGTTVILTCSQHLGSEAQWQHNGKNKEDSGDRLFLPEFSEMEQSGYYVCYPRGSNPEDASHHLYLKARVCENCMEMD
Experimental: as §2

[12] = target: T9, Biotinylated cynomolgus CD3E&D (cynomolgus, UniProt Q95LI5 22-117; Q95LI8 22-105, biotin label); assay: as above
T9 construct: also called CDD-C82W6
T9 sequence (Q95LI8 22-105, one chain of several): as the sequence (P04234 22-105, chain 2 of 2) above, with I5V, N15K, I20V, S32T, D33N, I34N, T64A, S74N, V83L counted along it
Experimental: as §2

[13] = target: T10, human CLDN2 (human, UniProt P57739 1-230); assay: FACS on HEK293 cells transiently expressing human CLDN2
T10 construct: whole, on cells; also called hCLDN2
T10 sequence (looked up): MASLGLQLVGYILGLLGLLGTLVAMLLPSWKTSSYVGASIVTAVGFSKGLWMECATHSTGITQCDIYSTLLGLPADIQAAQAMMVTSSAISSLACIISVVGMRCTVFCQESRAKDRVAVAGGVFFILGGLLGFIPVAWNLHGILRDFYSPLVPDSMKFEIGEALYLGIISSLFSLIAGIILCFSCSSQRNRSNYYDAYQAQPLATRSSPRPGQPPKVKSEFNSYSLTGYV
Experimental: (§3) Antibodies were assayed for binding affinity to human CLDN18.2 paralogous proteins by FACS (ACEA NovoCyte). CLDN1, CLDN2, CLDN3, CLDN4, CLDN6 and CLDN9 genes of the human CLDN18.2 paralogous family were transiently transfected into HEK293 cells. […] The cell density was adjusted to 10⁶ cells/mL, and 50 μL of the cell suspension was added to each well of a 96-well plate. An antibody was diluted to 60 nM with FACS buffer, and 50 μL of the antibody dilution was added to each well of the 96-well plate. After 2 h of incubation at 4° C., the plate was washed twice with FACS buffer. Then, an FACS buffer containing a secondary antibody was added. After 1 h of incubation at 4° C., the plate was washed twice with FACS buffer. The cells were resuspended in fixative solution, and run FACS.

[14] = target: T11, human CLDN4 (human, UniProt O14493 1-209); assay: FACS on HEK293 cells transiently expressing human CLDN4
T11 construct: whole, on cells; also called hCLDN4
T11 sequence (looked up): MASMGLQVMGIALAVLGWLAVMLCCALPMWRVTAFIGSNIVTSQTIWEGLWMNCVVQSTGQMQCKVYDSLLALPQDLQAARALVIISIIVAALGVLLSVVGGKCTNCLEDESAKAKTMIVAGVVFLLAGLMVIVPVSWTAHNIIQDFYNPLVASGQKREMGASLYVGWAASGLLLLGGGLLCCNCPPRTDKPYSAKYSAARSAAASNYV
Experimental: as §3

[15] = target: T12, human CLDN9 (human, UniProt O95484 1-217); assay: FACS on HEK293 cells transiently expressing human CLDN9
T12 construct: whole, on cells; also called hCLDN9
T12 sequence (looked up): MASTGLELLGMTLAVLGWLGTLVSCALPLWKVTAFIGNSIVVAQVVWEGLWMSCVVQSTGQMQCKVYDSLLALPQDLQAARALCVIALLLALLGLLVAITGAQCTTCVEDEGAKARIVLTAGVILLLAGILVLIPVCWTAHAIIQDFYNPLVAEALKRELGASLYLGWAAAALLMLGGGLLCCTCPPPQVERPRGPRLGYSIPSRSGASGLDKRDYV
Experimental: as §3

[16] = target: Human FcRn (human, UniProt P55899 24-297; P61769 21-119); assay: BLI (Octet), antibody on FAB2G sensor, pH 6.0, 1:1 global fit; pH 6.0; 400-25 nM
Sequence of Human FcRn (P55899 24-297 limits assumed, chain 1 of 2): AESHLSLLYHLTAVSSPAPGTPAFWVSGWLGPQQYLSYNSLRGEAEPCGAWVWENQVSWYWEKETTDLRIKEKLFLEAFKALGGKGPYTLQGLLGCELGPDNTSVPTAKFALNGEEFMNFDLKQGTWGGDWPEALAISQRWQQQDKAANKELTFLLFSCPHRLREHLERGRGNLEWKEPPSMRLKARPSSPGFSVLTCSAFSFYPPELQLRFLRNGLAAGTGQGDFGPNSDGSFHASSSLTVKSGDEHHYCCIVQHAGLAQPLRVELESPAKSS
Sequence of Human FcRn (P61769 21-119 limits assumed, chain 2 of 2): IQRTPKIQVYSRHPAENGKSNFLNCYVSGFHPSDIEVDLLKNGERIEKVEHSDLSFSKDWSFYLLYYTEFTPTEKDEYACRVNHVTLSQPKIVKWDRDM
Experimental: as §1

[17] = target: T1, human CLDN18.2; assay: competition FACS on HEK293/hCLDN18.2 cells; competitor 10 nM biotinylated PR000400
Experimental: This example is to study the binding of anti-human CLDN18.2 bispecific antibodies to the epitope region of a human CLDN18.2 antigen. Competitive binding experiments were performed at the cellular level using human CLDN18.2-overexpressing HEK293/hCLDN18.2 cells. […] The mixture was well mixed and incubated at 4° C. for 30 min. 25 μL of the corresponding serially diluted non-biotinylated anti-human CLDN18.2 antibody was added. The mixture was well mixed and incubated at 4° C. for 1 h. The cells in each well were washed twice with 200 μL of pre-cooled FACS buffer (2% BSA in DPBS) and centrifuged at 500 g at 4° C. for 5 min, and then the supernatant was discarded. A fluorescent secondary antibody (Jackson ImmunoResearch, 016-540-084, 1:500) was added. The mixture was incubated at 4° C. in the absence of light for 1 h. The cells in each well were washed twice with 200 μL of pre-cooled FACS buffer (2% BSA in DPBS) and centrifuged at 500 g at 4° C. for 5 min, and then the supernatant was discarded. Finally, the cells in each well were resuspended in 200 μL of pre-cooled FACS buffer, and the fluorescence signal values were read using a ACEA_NovoCyte.

B1: PR006292 (bispecific antibody, human IgG1, lambda)
chain: EVQLVESGGGLVQPGGSLRLSCAASGFTFSSYWMHWVRQVPGKGLVWVSRISSDASRTIYADSVKGRFTISRDNAKNTLYLQMNSLRAEDTAVYYCARGEDHDILTGYPIRGQGTTVTVSSGGGGSGGGGSGGGGSEVQLVESGGGLVQPGGSLRLSCAASGFTFSSYWMHWVRQVPGKGLVWVSRISSDASRTIYADSVKGRFTISRDNAKNTLYLQMNSLRAEDTAVYYCARGEDHDILTGYPIRGQGTTVTVSSASEPKSSDKTHTCPPCPAPEAAGAPSVFLFPPKPKDTLMISRTPEVTCVVVDVSHEDPEVKFNWYVDGVEVHNAKTKPREEQYNSTYRVVSVLTVLHQDWLNGKEYKCKVSNKALPAPIEKTISKAKGQPREPQVCTLPPSREEMTKNQVSLSCAVKGFYPSDIAVEWESNGQPENNYKTTPPVLDSDGSFFLVSKLTVDKSRWQQGNVFSCSVMHEALHNHYTQKSLSLSPGK
heavy: EVQLVESGGGLVQPGGSLKLSCAASGFTFSTYAMNWVRQASGKGLEWVGRIRSKYNNYATYYADSVKDRFTISRDDSKNTAYLQMNSLKTEDTAVYYCTRHGNFGNSYVSWFAYWGQGTLVTVSSASTKGPSVFPLAPSSKSTSGGTAALGCLVKDYFPEPVTVSWNSGALTSGVHTFPAVLQSSGLYSLSSVVTVPSSSLGTQTYICNVNHKPSNTKVDKKVEPKSCDKTHTCPPCPAPEAAGAPSVFLFPPKPKDTLMISRTPEVTCVVVDVSHEDPEVKFNWYVDGVEVHNAKTKPREEQYNSTYRVVSVLTVLHQDWLNGKEYKCKVSNKALPAPIEKTISKAKGQPREPQVYTLPPCREEMTKNQVSLWCLVKGFYPSDIAVEWESNGQPENNYKTTPPVLDSDGSFFLYSKLTVDKSRWQQGNVFSCSVMHEALHNHYTQKSLSLSPGK
light: QAVVTQEPSLTVSPGGTVTLTCRSSTGAVTTSNYANWVQQKPGQAPRGLIGGTNKRAPWTPARFSGSLLGDKAALTLLGAQPEDEAEYFCALWYSNLWVFGGGTKLTVLGQPKAAPSVTLFPPSSEELQANKATLVCLISDFYPGAVTVAWKADSSPVKAGVETTTPSKQSNNKYAASSYLSLTPEQWKSHRSYSCQVTHEGSTVEKTVAPTECS
notes: structure 1; CD3 Fab from PR003886, CLDN18.2 VH from PR007245; IgG1 knob/hole, AAA (L234A, L235A, G237A)
[1]
  EC50: 70.1 nM
[2]
  EC50: 11.5 nM
[3]
  binding result: no binding (tested: 800-50 nM)
[4]
  binding result: no binding (tested: 6000-375 nM)
[5]
  binding result: no binding (tested: 10000-625 nM)
[6]
  binding result: no binding (tested: 10000-625 nM)
[7]
  binding result: no binding (tested: 10000-625 nM)
[8]
  binding result: no binding (tested: 120-7.5 nM)
[9]
  Kd: 99 nM
  koff: 0.00978 s⁻¹
  kon: 98900 M⁻¹ s⁻¹
[10]
  Kd: 144 nM
  koff: 0.0122 s⁻¹
  kon: 84700 M⁻¹ s⁻¹
[11]
  Kd: 140 nM
  koff: 0.0105 s⁻¹
  kon: 75100 M⁻¹ s⁻¹
[12]
  Kd: 113 nM
  koff: 0.00965 s⁻¹
  kon: 85700 M⁻¹ s⁻¹
[13]
  binding result: no binding
[14]
  binding result: no binding
[15]
  binding result: no binding
[16]
  Kd: 200 nM
  koff: 0.0609 s⁻¹
  kon: 305000 M⁻¹ s⁻¹
[17]
  IC50: 87.7 nM
  Maximum inhibition rate (%): 97.7%

B2: PR006384 (bispecific antibody, human IgG1, lambda)
chain: B1 chain with D54T, A55G, D190T, A191G
heavy: B1 heavy
light: B1 light
notes: structure 1; CD3 Fab from PR003886, CLDN18.2 VH from PR007246; AAA
[1]
  EC50: 51.4 nM
[2]
  EC50: 14.4 nM
[3]
  binding result: no binding (tested: 800-50 nM)
[4]
  binding result: no binding (tested: 6000-375 nM)
[5]
  binding result: no binding (tested: 10000-625 nM)
[6]
  binding result: no binding (tested: 10000-625 nM)
[7]
  binding result: no binding (tested: 10000-625 nM)
[8]
  binding result: no binding (tested: 120-7.5 nM)
[9]
  Kd: 151 nM
  koff: 0.0129 s⁻¹
  kon: 85400 M⁻¹ s⁻¹
[10]
  Kd: 132 nM
  koff: 0.0119 s⁻¹
  kon: 90200 M⁻¹ s⁻¹
[11]
  Kd: 165 nM
  koff: 0.0122 s⁻¹
  kon: 74000 M⁻¹ s⁻¹
[12]
  Kd: 152 nM
  koff: 0.00942 s⁻¹
  kon: 62200 M⁻¹ s⁻¹
[13]
  binding result: no binding
[14]
  binding result: no binding
[15]
  binding result: no binding
[16]
  Kd: 210 nM
  koff: 0.0608 s⁻¹
  kon: 289000 M⁻¹ s⁻¹
[17]
  IC50: 103 nM
  Maximum inhibition rate (%): 97.8%

From patent publication US20250340631A1 (HARBOUR BIOMED SHANGHAI, published 2025)
